Measured values taken from patent publication US20200231681A1 (CHONG KUN DANG PHARMACEUTICAL, published 2020).

Key:
[1] = target: T1, human VEGF R2 Fc chimera (R&D systems, 357-KD_CF) (human, UniProt P35968 20-764); assay: indirect ELISA, hu8C4 at 1.200 nM
T1 construct: also called VEGFR R2
Protocol: (§1) Each antigen was diluted in 0.05 M carbonate-bicarbonate (Sigma, C3041) buffer at a concentration of 1 μg/ml, after which the resulting antigen was added into each well of a 96-well plate (Corning, #2592), such that the resulting plate was coated at 4° C. overnight. The plate was washed once with TBS-T, after which TBS-T containing 4%—skim milk was added by 200 μl into each well of the resulting plate in order to inhibit a non-specific binding, such that the resulting plate was reacted at 37° C. for 1 hour. Then, the plate was washed once with TBS-T buffer, after which a primary antibody was sequentially diluted in TBS-T buffer containing 2%—skim milk from a highest concentration of 30 nM to 0.002 nM, such that the resulting antibody was added by 100 μk into each well, thus being reacted at 37° C. for 2 hours. After being washed three times with TBS-T buffer, an anti-human kappa light chains-peroxidase (Sigma, A7164) was diluted at a ratio of 1:5000 as a secondary antibody, after which the resulting antibody was added by 100 μl into each well, thus being reacted at 37° C. for 1 hour. Then, after being washed three times with TBS-T buffer, TMB solution (Sigma, T4444) was added by 100 μl into each well to carry out an color developing reaction, after which 2 N […] solution was added by 50 μl into each well to stop the reaction. An optical density was measured based on a value at a wavelength of 450 nm by using a microplate reader and a reference wavelength of 570 nm was used.

[2] = target: T2, human MSP R/Ron (R&D systems, 1947-MS-050) (human, UniProt Q04912 25-571, limits assumed); assay: indirect ELISA, hu8C4 at 1.200 nM
Protocol: as §1

[3] = target: T3, human IGF-I R (R&D systems, 391-GR-050) (human, UniProt P08069 31-932); assay: indirect ELISA, hu8C4 at 1.200 nM
Protocol: as §1

[4] = target: T4, human PDGF Rβ Fc chimera (R&D systems, 385-PR_CF) (human, UniProt P09619 33-530); assay: indirect ELISA, hu8C4 at 1.200 nM
T4 sequence (P09619 33-530, change not shown): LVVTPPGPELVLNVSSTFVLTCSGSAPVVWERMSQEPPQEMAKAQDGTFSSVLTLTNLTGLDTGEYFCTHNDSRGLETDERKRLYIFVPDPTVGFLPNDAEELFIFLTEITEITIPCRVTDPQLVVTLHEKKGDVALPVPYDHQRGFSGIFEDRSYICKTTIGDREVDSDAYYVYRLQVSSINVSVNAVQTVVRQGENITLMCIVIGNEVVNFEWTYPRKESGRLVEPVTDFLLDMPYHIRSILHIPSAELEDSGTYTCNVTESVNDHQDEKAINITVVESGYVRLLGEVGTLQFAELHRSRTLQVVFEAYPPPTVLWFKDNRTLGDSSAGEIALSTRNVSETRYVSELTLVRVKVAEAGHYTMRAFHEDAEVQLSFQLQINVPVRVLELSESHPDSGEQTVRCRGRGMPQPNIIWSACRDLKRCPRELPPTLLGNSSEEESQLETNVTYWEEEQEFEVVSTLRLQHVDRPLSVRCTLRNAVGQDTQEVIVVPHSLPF
Protocol: as §1

[5] = target: T5, mouse c-Met (SiNo. Biological Inc, 50622-M08H) (mouse, UniProt P16056 25-931); assay: ELISA, antigen coated at 2 µg/ml, antibody 6.4 pM to 100 nM, anti-human IgG F(ab')2-HRP, TMB, O.D. at 450 nm [panel Mouse cMet]
T5 construct: extracellular domain
T5 sequence (P16056 25-931, stated change not applied): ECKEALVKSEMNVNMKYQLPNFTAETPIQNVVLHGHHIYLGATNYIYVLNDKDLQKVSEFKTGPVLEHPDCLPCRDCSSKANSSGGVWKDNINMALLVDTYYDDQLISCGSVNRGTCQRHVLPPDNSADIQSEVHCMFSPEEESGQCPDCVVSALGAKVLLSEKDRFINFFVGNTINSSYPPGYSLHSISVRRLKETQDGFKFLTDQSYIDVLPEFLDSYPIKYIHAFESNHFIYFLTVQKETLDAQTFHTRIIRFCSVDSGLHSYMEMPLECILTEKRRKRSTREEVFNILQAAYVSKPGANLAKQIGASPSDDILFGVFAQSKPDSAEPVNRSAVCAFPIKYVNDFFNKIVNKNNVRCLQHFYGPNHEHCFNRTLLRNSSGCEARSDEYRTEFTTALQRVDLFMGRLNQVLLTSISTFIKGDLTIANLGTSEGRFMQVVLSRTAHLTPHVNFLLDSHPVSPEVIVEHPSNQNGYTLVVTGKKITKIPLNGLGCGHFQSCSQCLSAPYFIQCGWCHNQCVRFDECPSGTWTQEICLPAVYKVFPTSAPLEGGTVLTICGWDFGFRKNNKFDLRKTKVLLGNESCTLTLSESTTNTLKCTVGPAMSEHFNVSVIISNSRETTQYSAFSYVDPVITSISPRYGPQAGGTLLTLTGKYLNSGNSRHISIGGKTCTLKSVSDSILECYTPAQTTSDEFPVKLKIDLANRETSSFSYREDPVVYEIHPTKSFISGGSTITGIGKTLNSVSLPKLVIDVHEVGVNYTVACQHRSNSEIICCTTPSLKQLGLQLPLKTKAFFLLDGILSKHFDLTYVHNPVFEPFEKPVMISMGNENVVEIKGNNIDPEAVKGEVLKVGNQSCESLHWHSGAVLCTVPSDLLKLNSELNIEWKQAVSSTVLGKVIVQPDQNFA
Protocol: Particularly, mouse c-Met (SiNo. Biological Inc, 50622-M08H), cynomolgus monkey c-Met (SiNo. Biological Inc, 90304-CO8H), human c-Met (R&D Systems, 358-MT), mouse EGFR (SiNo. Biological Inc, 51091-M08H), cynomolgus monkey EGFR (SiNo. Biological, 90285-008B) and human EGFR (Abcam, 155639) antigens were all divided into a 96-well plate at a concentration of 2 μg/ml, after which the resulting plate was reacted at 4° C. overnight.
Color development was made by using TMB (Sigma, T4444) solution, wherein its value was measured at an optical density of 450 nm and its ELISA results are shown in FIG. 9.

[6] = target: T6, human c-Met ECD (ACROBiosystems, MET-H5227) (human, UniProt P08581 25-932); assay: SPR (BIAcore), antibody captured by anti-human IgG Fc, antigen as analyte, 1:1 Langmuir
T6 construct: extracellular domain; Bought protein
T6 sequence (P08581 25-932): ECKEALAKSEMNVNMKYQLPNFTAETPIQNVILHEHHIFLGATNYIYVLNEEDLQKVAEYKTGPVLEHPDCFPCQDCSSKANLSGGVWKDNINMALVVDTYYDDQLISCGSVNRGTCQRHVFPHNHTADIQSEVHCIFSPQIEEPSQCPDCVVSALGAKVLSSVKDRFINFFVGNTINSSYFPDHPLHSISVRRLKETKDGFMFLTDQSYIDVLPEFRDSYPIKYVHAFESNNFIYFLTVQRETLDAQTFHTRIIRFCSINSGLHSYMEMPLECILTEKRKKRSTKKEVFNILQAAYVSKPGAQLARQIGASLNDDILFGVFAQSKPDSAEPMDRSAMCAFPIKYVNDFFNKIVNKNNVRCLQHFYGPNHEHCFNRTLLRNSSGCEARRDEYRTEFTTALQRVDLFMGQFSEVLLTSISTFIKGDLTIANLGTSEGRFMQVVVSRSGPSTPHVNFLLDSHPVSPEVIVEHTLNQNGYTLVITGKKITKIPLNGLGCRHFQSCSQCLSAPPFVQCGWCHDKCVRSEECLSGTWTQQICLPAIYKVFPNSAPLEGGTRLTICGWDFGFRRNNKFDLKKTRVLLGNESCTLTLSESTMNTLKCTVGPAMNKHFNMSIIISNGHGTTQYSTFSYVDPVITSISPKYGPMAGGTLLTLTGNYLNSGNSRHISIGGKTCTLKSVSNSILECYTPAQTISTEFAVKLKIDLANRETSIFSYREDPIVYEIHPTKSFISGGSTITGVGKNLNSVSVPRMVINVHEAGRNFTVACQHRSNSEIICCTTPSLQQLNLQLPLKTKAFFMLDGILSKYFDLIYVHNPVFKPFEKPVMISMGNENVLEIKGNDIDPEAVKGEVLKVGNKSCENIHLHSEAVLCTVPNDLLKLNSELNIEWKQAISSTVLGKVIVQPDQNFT
Protocol: (§2) The antibodies were diluted in HBS-EP buffer (0.01 M HEPES pH 7.4, 0.15 M NaCl, 3 mM EDTA and 0.005% (v/v) Surfactant P20) at a concentration of 1-2 μg/ml, after which the resulting antibodies were injected into a CM5 chip with an anti-human Ig Fc fixed thereto at a flow rate of 30 μl/min for 10-120 seconds, and then captured in a range of 150-200 RU. Each antigen was used after being diluted at 10, 5, 2.5, 1.25, 0.625, 0.3125 and 0.15625 nM, after which the resulting antigens were sequentially injected from a lower concentration. Then, the resulting antigens were injected at a flow rate of 30 μl/min for 5 minutes to carry out binding, after which a running buffer was injected thereinto for 10-15 minutes to carry out a dissociation. 15 μl of 10 mM Glycine-HCl (pH 1.5) was used to revive the chip.

[7] = target: T7, cynomolgus monkey c-Met ECD (SiNo. Biological, 90304-CO8H) (cynomolgus monkey, UniProt A0A2K5UM36 25-932); assay: as above
T7 construct: not shown: The vendor's tag
T7 sequence (A0A2K5UM36 entry or part of it limits assumed): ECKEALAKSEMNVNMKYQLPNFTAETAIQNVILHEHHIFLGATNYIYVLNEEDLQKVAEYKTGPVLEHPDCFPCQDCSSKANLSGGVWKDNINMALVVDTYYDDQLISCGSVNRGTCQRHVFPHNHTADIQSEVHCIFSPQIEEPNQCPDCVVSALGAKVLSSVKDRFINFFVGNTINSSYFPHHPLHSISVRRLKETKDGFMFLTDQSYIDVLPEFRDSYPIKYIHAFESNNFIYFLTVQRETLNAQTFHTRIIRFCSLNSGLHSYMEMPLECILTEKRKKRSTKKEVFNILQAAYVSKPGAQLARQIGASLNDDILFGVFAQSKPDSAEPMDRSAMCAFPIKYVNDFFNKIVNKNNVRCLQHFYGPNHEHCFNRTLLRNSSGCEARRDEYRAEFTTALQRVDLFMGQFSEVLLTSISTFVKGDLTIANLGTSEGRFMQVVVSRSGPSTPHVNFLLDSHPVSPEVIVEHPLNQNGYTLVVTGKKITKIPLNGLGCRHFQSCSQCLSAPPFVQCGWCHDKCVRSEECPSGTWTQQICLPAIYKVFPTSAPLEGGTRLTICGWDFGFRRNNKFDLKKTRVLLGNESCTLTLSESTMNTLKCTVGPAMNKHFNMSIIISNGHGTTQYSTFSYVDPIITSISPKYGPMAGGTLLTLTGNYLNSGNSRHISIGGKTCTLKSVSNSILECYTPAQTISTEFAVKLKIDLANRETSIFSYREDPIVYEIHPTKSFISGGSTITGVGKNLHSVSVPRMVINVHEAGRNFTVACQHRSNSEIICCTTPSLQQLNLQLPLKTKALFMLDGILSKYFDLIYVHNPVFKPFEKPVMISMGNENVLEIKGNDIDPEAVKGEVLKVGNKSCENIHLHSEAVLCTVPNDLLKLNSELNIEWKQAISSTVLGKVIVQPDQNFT
Protocol: as §2

[8] = target: T2, human MSP R/Ron (R&D systems, …); assay: indirect ELISA, hu8C4 at 0.048 nM
Protocol: as §1

[9] = target: T3, human IGF-I R (R&D systems, 391-GR-050); assay: indirect ELISA, hu8C4 at 0.048 nM
Protocol: as §1

[10] = target: T4, human PDGF Rβ Fc chimera (R&D systems, …); assay: indirect ELISA, hu8C4 at 0.048 nM
Protocol: as §1

[11] = target: T1, human VEGF R2 Fc chimera (R&D systems, …); assay: indirect ELISA, hu8C4 at 0.010 nM
Protocol: as §1

[12] = target: T2, human MSP R/Ron (R&D systems, …); assay: indirect ELISA, hu8C4 at 0.010 nM
Protocol: as §1

[13] = target: T3, human IGF-I R (R&D systems, 391-GR-050); assay: indirect ELISA, hu8C4 at 0.010 nM
Protocol: as §1

[14] = target: T4, human PDGF Rβ Fc chimera (R&D systems, …); assay: indirect ELISA, hu8C4 at 0.010 nM
Protocol: as §1

T1 sequence (P35968 20-764, change not shown): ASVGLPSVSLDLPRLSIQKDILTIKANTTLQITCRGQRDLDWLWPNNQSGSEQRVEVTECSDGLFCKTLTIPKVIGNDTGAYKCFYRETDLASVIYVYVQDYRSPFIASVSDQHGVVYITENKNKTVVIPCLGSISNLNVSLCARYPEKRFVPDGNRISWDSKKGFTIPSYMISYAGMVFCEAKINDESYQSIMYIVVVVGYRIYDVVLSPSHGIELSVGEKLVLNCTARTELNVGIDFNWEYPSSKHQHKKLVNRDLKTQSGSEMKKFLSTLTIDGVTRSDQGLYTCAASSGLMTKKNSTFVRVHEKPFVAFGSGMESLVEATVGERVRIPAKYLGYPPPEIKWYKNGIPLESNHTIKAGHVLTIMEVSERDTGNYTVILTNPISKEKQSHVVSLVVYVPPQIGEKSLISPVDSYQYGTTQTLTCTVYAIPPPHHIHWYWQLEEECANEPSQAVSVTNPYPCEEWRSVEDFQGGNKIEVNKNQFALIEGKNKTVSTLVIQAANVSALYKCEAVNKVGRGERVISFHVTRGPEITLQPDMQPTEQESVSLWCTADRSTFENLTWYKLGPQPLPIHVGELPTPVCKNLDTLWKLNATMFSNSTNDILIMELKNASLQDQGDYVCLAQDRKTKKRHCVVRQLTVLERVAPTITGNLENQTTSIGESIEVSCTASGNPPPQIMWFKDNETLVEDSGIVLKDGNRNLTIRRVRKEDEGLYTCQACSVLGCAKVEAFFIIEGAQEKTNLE

A450 nm-A570 nm [1]: -0.01 A450 nm-A570 nm
A450 nm-A570 nm [2]: 0 A450 nm-A570 nm
A450 nm-A570 nm [3]: 0 A450 nm-A570 nm
A450 nm-A570 nm [4]: -0.01 A450 nm-A570 nm
binding result [5]: no binding (tested: 100 nM)
Kd [6]: 0.317 nM
koff [6]: 0.000215 s⁻¹
kon [6]: 677000 M⁻¹ s⁻¹
Kd [7]: 0.462 nM
koff [7]: 0.000345 s⁻¹
kon [7]: 747000 M⁻¹ s⁻¹
A450 nm-A570 nm [8]: 0 A450 nm-A570 nm
A450 nm-A570 nm [9]: 0 A450 nm-A570 nm
A450 nm-A570 nm [10]: -0.01 A450 nm-A570 nm
A450 nm-A570 nm [11]: -0.01 A450 nm-A570 nm
A450 nm-A570 nm [12]: 0 A450 nm-A570 nm
A450 nm-A570 nm [13]: 0 A450 nm-A570 nm
A450 nm-A570 nm [14]: -0.01 A450 nm-A570 nm
B1: hu8C4 (IgG1 humanized antibody having a hinge region of SEQ ID NO: 38 in hu8C4-1) (antibody, V domains shown)
VH: EVQLVESGGGLVQPGGSLRLSCAASGYTFSDYYINWVRQAPGKGLEWIGEIFPGSGNTHFSARFKGRATLSADKSKNTAYLQMNSLRAEDTAVYYCAGGDYGFLYWGQGTLVTVSS
VL: DIQMTQSPSSLSASVGDRVTITCGASENIYGALNWYQQKPGKAPKLLIYGATNLADGVPSRFSGSGSGRDFTFTISSLQPEDIATYYCQNVLSSPYTFGQGTKVEIK
notes: light chain detected with anti-human kappa; also called anti-c-Met antibody hu8C4; hu8C4 monospecific antibody
